Target: eIF2 trimer (recombinant, not phosphorylated), P05198;P20042;P41091
Experiment: fluorescence polarisation
Conditions: chain shown with the change; 2.0 µM eIF2 trimer (highest analyte concentration); fluorescein-labeled R3 420-466 peptide as probe; parent: est. 90; read off a plot

eIF2 trimer (recombinant, not phosphorylated), P05198;P20042;P41091, sequence (chain, as listed by the source, chain 1 of 3): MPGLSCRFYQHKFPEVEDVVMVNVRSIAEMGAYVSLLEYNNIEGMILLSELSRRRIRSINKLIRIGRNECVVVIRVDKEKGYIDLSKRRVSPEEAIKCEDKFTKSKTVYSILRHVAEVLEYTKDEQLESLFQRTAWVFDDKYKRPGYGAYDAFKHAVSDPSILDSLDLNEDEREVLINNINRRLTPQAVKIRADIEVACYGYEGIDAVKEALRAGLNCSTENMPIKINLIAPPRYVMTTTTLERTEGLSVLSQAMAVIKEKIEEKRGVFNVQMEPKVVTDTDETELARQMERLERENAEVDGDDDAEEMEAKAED
eIF2 trimer (recombinant, not phosphorylated), P05198;P20042;P41091, sequence (chain, as listed by the source, chain 2 of 3): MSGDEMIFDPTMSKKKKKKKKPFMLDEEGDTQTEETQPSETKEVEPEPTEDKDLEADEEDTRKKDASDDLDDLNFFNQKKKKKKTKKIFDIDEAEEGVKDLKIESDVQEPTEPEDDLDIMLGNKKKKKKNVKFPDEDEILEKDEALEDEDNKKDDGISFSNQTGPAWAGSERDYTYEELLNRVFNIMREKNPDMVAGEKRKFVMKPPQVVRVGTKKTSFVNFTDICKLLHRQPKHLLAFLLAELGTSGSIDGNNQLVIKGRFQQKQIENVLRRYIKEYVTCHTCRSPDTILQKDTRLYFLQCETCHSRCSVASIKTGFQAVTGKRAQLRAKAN
eIF2 trimer (recombinant, not phosphorylated), P05198;P20042;P41091, sequence (chain, as listed by the source, chain 3 of 3): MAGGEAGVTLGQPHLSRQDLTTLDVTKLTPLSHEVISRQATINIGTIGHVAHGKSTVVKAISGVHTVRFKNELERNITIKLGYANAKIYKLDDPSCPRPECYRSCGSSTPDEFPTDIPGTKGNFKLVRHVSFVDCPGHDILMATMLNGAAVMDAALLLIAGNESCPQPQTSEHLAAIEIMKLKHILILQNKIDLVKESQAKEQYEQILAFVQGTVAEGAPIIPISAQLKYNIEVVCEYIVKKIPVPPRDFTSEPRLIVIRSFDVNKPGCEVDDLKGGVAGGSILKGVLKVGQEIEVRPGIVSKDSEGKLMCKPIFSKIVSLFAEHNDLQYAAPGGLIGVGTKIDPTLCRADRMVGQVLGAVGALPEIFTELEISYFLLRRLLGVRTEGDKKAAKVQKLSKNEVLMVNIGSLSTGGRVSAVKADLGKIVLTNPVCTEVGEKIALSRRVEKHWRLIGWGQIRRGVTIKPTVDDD

Question: ASTPPASAALKAAVYRPGEDTEEEEDEDVDSEDKEDDSEAALGEAES was tested. Which response did it give?
Answer: 27 mP
